Reference: the supplement of paper PMC10065799, “High-throughput profiling of sequence recognition by tyrosine kinases and SH2 domains using bacterial peptide display” (eLife, 2023)

Experiments:
AncSZ = experiment: phosphorylation enrichment, bacterial display (enrichment ratio); higher = better substrate or ligand; peptides without Tyr show the background
EPHB1 = EPHB1 (UniProt P54762); experiment: as above
EPHB2 = EPHB2 (UniProt P29323); experiment: as above
FGFR1 = FGFR1 (UniProt P11362); experiment: as above
FGFR3 = FGFR3 (UniProt P22607); experiment: as above
Fer (mouse) = experiment: as above
Fes = Fes (UniProt P07332); experiment: as above
Fyn = Fyn (UniProt P06241); experiment: as above
Hck = Hck (UniProt P08631); experiment: as above
Jak2 = Jak2 (UniProt O60674); experiment: as above
MERTK = MERTK (UniProt Q12866); experiment: as above
c-Abl (mouse) = experiment: as above
c-Src = experiment: as above
Grb2 SH2 = Grb2 SH2 (UniProt P62993); experiment: SH2 binding enrichment of the phosphorylated peptide, bacterial display (enrichment ratio); higher = better substrate or ligand; peptides without Tyr show the background
SHP2-C SH2 = experiment: as above
c-Src SH2 = experiment: as above
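Wherever SH2 binding enrichment of the phosphorylated peptide, bacterial display is given: peptide library displayed on the E. coli surface as eCPX fusions, selected cells deep-sequenced, score is each peptide's frequency after selection divided by its frequency in the input.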
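Wherever phosphorylation enrichment, bacterial display is given: 11-residue human phosphosite peptides and single-mutation variants displayed on the E. coli surface, counted by deep sequencing, each peptide's frequency after selection divided by its frequency in the unselected input library; frequency after pTyr selection over input frequency; kinase dosed for 20-30% of maximal phosphorylation in three min.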

EPHB2, sequence (P29323 whole entry, looked up): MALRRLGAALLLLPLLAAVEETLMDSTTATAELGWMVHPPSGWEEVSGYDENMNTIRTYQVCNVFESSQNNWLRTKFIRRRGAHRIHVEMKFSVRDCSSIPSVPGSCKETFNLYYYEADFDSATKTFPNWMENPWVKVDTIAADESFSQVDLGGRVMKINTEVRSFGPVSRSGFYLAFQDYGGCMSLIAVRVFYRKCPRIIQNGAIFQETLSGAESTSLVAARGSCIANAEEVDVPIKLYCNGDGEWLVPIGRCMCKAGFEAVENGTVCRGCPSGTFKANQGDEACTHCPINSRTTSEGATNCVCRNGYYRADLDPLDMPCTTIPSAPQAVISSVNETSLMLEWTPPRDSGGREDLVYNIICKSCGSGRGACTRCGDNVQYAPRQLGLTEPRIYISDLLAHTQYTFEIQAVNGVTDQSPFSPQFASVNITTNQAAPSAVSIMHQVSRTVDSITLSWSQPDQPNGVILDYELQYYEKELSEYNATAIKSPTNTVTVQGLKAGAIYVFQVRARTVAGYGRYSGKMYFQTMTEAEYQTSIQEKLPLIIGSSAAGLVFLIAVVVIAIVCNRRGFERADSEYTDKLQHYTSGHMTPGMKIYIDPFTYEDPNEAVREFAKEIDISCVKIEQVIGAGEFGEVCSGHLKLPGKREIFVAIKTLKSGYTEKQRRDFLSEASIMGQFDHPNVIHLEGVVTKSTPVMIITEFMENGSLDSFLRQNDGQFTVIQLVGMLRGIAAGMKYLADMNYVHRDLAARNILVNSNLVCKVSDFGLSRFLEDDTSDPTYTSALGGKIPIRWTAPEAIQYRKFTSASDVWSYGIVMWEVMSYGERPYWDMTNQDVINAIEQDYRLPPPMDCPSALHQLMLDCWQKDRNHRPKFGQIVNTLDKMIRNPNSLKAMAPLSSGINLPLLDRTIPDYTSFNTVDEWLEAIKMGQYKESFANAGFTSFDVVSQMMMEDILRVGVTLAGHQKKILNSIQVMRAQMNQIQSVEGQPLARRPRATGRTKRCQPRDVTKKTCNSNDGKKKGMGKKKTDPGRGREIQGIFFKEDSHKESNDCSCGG
EPHB1, sequence (P54762 whole entry, looked up): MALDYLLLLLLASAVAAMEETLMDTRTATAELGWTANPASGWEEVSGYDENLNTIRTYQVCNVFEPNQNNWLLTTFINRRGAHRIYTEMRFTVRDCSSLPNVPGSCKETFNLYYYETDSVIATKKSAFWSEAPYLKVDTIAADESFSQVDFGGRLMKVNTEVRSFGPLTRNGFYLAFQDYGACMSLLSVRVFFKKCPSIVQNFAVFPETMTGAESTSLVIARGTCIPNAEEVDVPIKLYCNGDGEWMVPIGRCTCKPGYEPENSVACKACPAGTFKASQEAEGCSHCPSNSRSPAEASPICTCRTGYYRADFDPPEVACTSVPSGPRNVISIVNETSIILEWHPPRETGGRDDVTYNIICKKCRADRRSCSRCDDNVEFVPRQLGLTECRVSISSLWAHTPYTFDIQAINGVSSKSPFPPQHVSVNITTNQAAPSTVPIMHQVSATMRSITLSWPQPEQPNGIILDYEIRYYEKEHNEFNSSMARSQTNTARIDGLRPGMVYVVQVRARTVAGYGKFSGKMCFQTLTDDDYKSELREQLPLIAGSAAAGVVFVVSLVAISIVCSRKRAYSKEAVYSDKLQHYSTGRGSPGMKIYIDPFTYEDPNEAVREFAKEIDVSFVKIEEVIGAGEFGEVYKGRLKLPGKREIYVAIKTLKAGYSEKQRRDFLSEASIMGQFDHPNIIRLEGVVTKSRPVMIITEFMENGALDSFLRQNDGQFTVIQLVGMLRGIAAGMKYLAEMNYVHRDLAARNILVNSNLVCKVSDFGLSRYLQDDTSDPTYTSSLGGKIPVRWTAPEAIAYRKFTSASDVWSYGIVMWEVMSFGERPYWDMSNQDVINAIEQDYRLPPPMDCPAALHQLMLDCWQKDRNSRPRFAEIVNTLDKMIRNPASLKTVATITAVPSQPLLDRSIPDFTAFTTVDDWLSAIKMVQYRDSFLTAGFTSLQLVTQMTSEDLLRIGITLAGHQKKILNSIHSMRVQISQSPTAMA
FGFR3, sequence (P22607 whole entry, looked up): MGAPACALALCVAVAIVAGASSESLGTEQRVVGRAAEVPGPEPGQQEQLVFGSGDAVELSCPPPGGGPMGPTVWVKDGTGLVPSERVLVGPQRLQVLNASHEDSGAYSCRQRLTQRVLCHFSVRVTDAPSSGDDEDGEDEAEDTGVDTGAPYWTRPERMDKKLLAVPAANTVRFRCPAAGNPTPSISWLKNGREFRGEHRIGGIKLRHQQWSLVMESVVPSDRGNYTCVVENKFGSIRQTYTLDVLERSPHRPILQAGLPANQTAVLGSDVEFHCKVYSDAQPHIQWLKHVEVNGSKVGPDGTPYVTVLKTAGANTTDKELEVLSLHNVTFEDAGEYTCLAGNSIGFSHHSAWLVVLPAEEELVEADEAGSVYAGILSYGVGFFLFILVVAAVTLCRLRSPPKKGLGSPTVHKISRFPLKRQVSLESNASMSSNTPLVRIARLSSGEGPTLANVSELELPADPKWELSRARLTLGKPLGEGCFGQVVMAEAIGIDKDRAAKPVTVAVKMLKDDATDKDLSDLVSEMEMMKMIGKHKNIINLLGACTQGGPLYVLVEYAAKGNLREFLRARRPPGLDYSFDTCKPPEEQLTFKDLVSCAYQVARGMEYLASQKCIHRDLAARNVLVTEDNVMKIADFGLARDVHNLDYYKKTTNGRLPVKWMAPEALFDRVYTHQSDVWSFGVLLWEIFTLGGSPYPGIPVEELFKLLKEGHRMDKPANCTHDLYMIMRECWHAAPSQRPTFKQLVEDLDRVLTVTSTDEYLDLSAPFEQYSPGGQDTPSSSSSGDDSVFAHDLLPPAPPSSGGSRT
Fyn, sequence (P06241 whole entry, looked up): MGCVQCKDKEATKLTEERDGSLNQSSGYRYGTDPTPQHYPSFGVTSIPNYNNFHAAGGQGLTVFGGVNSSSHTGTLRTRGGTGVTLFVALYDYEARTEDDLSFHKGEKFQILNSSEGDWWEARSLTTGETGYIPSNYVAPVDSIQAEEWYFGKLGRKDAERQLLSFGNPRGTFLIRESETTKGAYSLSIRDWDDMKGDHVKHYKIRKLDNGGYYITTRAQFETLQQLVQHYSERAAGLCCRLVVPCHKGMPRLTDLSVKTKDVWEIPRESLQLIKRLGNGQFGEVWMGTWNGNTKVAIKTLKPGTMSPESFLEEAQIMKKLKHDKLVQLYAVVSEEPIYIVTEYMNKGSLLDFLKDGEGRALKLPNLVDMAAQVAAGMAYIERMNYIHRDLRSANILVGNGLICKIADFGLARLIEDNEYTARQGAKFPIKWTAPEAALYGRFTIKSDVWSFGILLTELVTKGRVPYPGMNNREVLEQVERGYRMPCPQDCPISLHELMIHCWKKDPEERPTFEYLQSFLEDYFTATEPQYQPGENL
Grb2 SH2, sequence (P62993 whole entry, looked up): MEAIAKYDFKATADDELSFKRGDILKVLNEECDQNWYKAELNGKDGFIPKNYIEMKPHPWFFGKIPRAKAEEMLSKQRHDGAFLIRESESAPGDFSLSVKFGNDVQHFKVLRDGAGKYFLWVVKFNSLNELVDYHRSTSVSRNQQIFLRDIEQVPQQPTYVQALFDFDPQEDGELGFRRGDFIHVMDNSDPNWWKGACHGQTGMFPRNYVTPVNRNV
MERTK, sequence (Q12866 whole entry, looked up): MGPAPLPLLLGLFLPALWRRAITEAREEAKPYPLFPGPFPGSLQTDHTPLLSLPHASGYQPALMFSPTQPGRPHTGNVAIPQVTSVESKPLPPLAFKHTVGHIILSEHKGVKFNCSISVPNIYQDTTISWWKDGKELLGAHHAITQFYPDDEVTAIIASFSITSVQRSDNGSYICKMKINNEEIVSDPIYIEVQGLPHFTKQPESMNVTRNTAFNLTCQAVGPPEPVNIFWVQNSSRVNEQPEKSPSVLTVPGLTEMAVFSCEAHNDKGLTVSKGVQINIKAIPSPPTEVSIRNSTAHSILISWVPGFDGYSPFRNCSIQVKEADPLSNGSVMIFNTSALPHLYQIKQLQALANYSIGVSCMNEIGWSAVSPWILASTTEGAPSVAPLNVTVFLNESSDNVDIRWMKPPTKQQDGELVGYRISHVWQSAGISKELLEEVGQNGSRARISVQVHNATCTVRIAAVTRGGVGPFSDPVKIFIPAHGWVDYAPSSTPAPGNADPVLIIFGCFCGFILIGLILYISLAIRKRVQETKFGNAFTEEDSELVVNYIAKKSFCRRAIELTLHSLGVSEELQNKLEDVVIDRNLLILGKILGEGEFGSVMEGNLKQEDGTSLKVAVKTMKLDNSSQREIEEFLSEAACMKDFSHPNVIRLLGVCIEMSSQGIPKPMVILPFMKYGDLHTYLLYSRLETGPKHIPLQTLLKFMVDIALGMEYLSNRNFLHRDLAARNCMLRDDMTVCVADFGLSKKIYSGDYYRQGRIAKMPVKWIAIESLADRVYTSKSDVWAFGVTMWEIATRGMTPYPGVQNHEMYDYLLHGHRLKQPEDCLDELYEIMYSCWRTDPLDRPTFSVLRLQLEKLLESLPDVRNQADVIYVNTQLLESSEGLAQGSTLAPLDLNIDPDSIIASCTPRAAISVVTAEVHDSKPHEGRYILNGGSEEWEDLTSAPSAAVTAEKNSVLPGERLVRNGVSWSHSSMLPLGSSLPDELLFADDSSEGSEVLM

| Sequence | phosphorylation enrichment (AncSZ) | phosphorylation enrichment (EPHB1) | phosphorylation enrichment (EPHB2) | phosphorylation enrichment (FGFR1) | phosphorylation enrichment (FGFR3) | phosphorylation enrichment (Fer (mouse)) | phosphorylation enrichment (Fes) | phosphorylation enrichment (Fyn) | phosphorylation enrichment (Hck) | phosphorylation enrichment (Jak2) | phosphorylation enrichment (MERTK) | phosphorylation enrichment (c-Abl (mouse)) | phosphorylation enrichment (c-Src) | SH2 binding enrichment (Grb2 SH2) | SH2 binding enrichment (SHP2-C SH2) | SH2 binding enrichment (c-Src SH2) |
| --- | --- | --- | --- | --- | --- | --- | --- | --- | --- | --- | --- | --- | --- | --- | --- | --- |
| MRTMGYMPTEM [CABP5_Y62] | 0.683 | 0.428 | 0.509 | 0.63 | 0.538 | 0.459 | 0.732 | 0.388 | 0.456 | 0.507 | 0.344 | 0.447 | 0.355 | 0.789 | 1.08 | 0.407 |
| KIRDWYQRQRP [KRT14_Y151] | 0.621 | 0.405 | 0.463 | 0.415 | 0.419 | 0.45 | 0.635 | 0.4 | 0.38 | 0.553 | 0.446 | 0.637 | 0.502 | 0.84 | 0.744 | 0.523 |
| LQEQNYPAVDS [FAM114A1_Y115_L116P] | 2.01 | 1.37 | 1.26 | 0.988 | 1.54 | 0.878 | 1.86 | 0.92 | 0.739 | 1.54 | 0.81 | 1.13 | 0.699 | 0.698 | 0.508 | 0.655 |
| MSRNLYSGDFF [DDR2_Y736_YF] | 0.825 | 7.35 | 10 | 2.41 | 2.16 | 1.57 | 0.98 | 5.54 | 5.38 | 0.655 | 9.92 | 0.797 | 4.14 | 0.83 | 0.611 | 0.773 |
| IENKPYGMSDP [RET_Y1062_L1061P] | 0.761 | 0.55 | 0.508 | 0.504 | 0.599 | 0.483 | 0.861 | 0.41 | 0.458 | 0.869 | 0.41 | 0.549 | 0.414 | 0.702 | 0.648 | 0.401 |
| WDLPEYSFKDP [ITGA3_Y237_S235P_YF] | 2.37 | 0.558 | 0.571 | 0.486 | 0.836 | 0.421 | 1.25 | 3.1 | 1.19 | 1.18 | 0.381 | 0.871 | 1.02 | 0.931 | 1.04 | 0.502 |
| FSGIFYKPESL [L2HGDH_Y103_H98Y_YF] | 0.968 | 0.5 | 0.5 | 0.436 | 0.673 | 0.471 | 1.03 | 0.438 | 0.393 | 0.935 | 0.431 | 0.81 | 0.611 | 1.17 | 1.27 | 0.56 |
| ELTAKYLNYYR [P3H4_Y181_Q186R] | 0.639 | 0.606 | 0.512 | 0.498 | 0.541 | 0.392 | 0.748 | 0.369 | 0.419 | 0.616 | 0.496 | 0.498 | 0.374 | 2.44 | 0.948 | 0.666 |
| MEVGQYFFVKC [CYBB_Y324_I325F] | 2.28 | 0.861 | 0.8 | 4.99 | 4.7 | 0.801 | 1.69 | 0.551 | 0.719 | 2.56 | 1.13 | 1.39 | 0.667 | 0.716 | 0.61 | 0.44 |
| SQGRQYQELPR [KCNH2_Y1009_R1005Q] | 0.666 | 0.354 | 0.402 | 0.483 | 0.477 | 0.402 | 0.568 | 0.45 | 0.668 | 0.517 | 0.412 | 0.473 | 0.423 | 0.82 | 0.545 | 1.41 |
| VATRWYRSPEL [CDKL5_Y177] | 0.834 | 0.421 | 0.516 | 0.372 | 0.518 | 0.384 | 0.73 | 0.385 | 0.482 | 1 | 0.459 | 0.575 | 0.448 | 1.07 | 0.604 | 0.523 |
| RQIQSYTCEID [DES_Y331_H326R] | 1.02 | 0.522 | 0.514 | 0.515 | 0.726 | 0.485 | 1.08 | 0.642 | 0.745 | 0.833 | 0.489 | 0.817 | 0.474 | 0.899 | 0.701 | 0.674 |
| KLKPIYFHTQG [AR_Y916_V912L] | 0.602 | 0.393 | 0.503 | 0.511 | 0.525 | 0.312 | 0.671 | 0.349 | 0.364 | 0.513 | 0.4 | 0.568 | 0.523 | 1.78 | 2.12 | 1.95 |
| VDTLWYKFLKR [EPM2A_Y86_F84L] | 0.868 | 0.46 | 0.763 | 0.414 | 0.611 | 0.466 | 1.11 | 0.411 | 0.441 | 0.892 | 0.374 | 0.68 | 0.366 | 0.943 | 0.573 | 0.426 |
| LWEGSYGKVKE [STK11_Y60_G56W] | 0.872 | 0.476 | 0.491 | 0.587 | 0.77 | 0.647 | 2.28 | 0.623 | 0.678 | 1.08 | 0.509 | 0.69 | 0.721 | 0.645 | 1.21 | 0.507 |
| RMGNLYDIDEN [GRIN2A_Y1246_D1251N] | 1.52 | 1.16 | 1.44 | 0.876 | 1.22 | 0.864 | 2.16 | 4.25 | 1.86 | 3.11 | 1.03 | 2.11 | 3.1 | 0.805 | 0.613 | 1.2 |
| TCFDKYTGSTF [FN1_Y101_N104S_YF] | 0.739 | 0.494 | 0.533 | 0.443 | 0.699 | 0.469 | 1.12 | 0.408 | 0.51 | 0.646 | 0.448 | 0.537 | 0.529 | 1.29 | 0.956 | 0.82 |

| Sequence | phosphorylation enrichment (AncSZ) | phosphorylation enrichment (EPHB1) | phosphorylation enrichment (EPHB2) | phosphorylation enrichment (FGFR1) | phosphorylation enrichment (FGFR3) | phosphorylation enrichment (Fer (mouse)) | phosphorylation enrichment (Fes) | phosphorylation enrichment (Fyn) | phosphorylation enrichment (Hck) | phosphorylation enrichment (Jak2) | phosphorylation enrichment (MERTK) | phosphorylation enrichment (c-Abl (mouse)) | phosphorylation enrichment (c-Src) | SH2 binding enrichment (Grb2 SH2) | SH2 binding enrichment (SHP2-C SH2) | SH2 binding enrichment (c-Src SH2) |
| --- | --- | --- | --- | --- | --- | --- | --- | --- | --- | --- | --- | --- | --- | --- | --- | --- |
| RKQQLYIAMEE [CCDC39_Y593_T594I] | 0.993 | 0.651 | 0.822 | 0.8 | 0.543 | 0.607 | 1.28 | 0.655 | 0.431 | 0.7 | 1 | 0.725 | 0.753 | 0.916 | 0.909 | 0.938 |
| HRNNNYEPNLF [BRCA2_Y57_K53R] | 0.684 | 1.07 | 0.858 | 0.54 | 0.662 | 0.552 | 0.75 | 0.583 | 0.465 | 1.06 | 0.617 | 0.509 | 0.419 | 0.674 | 0.651 | 0.668 |
| EYGFRYELVQY [UGGT2_Y1289] | 1.83 | 0.986 | 0.879 | 0.872 | 1.17 | 3.36 | 1.65 | 0.558 | 0.674 | 1.62 | 0.631 | 0.932 | 0.584 | 0.768 | 0.787 | 2.15 |
| TQKLAYVELQQ [CENPF_Y700_M701V] | 1.07 | 0.507 | 0.561 | 0.754 | 0.643 | 0.449 | 1 | 0.445 | 0.453 | 0.904 | 0.395 | 1.03 | 0.525 | 0.874 | 1.75 | 0.932 |
| GGGGSYNNFGN [HNRNPA1_Y312_D314N] | 0.545 | 0.379 | 0.416 | 0.362 | 0.403 | 0.378 | 0.564 | 0.388 | 0.435 | 0.463 | 0.308 | 0.335 | 0.325 | 0.805 | 0.587 | 0.43 |
| KCCCIYEKPRS [PPP1R11_Y64_A69S] | 1.86 | 1.03 | 0.892 | 0.456 | 0.667 | 7.18 | 1.01 | 2.07 | 2.45 | 0.642 | 1.17 | 3.97 | 3.04 | 0.708 | 0.685 | 0.602 |
| HSYNSYTYPRL [PAK5_Y316] | 0.776 | 0.472 | 0.508 | 0.658 | 0.532 | 0.554 | 0.682 | 0.449 | 0.485 | 0.716 | 1.78 | 0.553 | 0.652 | 1.04 | 1.12 | 9.16 |
| CDSSGYWTPEE [PAPPA2_Y908] | 1.25 | 0.676 | 0.654 | 0.579 | 0.783 | 0.556 | 1.47 | 0.454 | 0.555 | 1.22 | 0.494 | 0.727 | 0.508 | 0.967 | 1.08 | 14.9 |
| MIRSAYALRGL [CPS1_Y590_G593R] | 0.669 | 0.434 | 0.448 | 0.474 | 0.527 | 0.409 | 0.628 | 0.39 | 0.491 | 0.543 | 0.423 | 0.502 | 0.474 | 0.731 | 0.6 | 0.408 |
| GIVEDYRPRFF [ACVRL1_Y421_P424R_YF] | 0.811 | 0.616 | 0.468 | 0.467 | 0.655 | 0.513 | 0.814 | 0.372 | 0.427 | 0.816 | 0.626 | 0.681 | 0.459 | 0.985 | 0.832 | 0.468 |
| EFQKKYSDADI [CKAP5_Y1860_K1857Q_YF] | 0.837 | 0.399 | 0.383 | 0.442 | 0.544 | 0.378 | 0.921 | 0.422 | 0.487 | 0.594 | 0.344 | 0.745 | 0.35 | 0.772 | 0.59 | 0.459 |
| GSERDYTFEEL [EIF2S2_Y174_YF] | 1.14 | 0.571 | 0.598 | 0.602 | 0.749 | 0.499 | 1.27 | 0.453 | 0.505 | 1.07 | 0.479 | 0.738 | 0.566 | 0.897 | 0.583 | 0.537 |
| IGEGTYGQVFK [CDK13_Y716_YF] | 0.456 | 0.62 | 1.18 | 0.324 | 0.402 | 0.636 | 0.665 | 10.8 | 8.97 | 0.569 | 0.428 | 0.566 | 7.69 | 0.774 | 0.808 | 0.426 |
| QSMEPYTKQQL [STAT3_Y640_V637M] | 0.851 | 0.454 | 0.66 | 0.51 | 0.692 | 0.546 | 1.02 | 0.462 | 0.696 | 0.736 | 0.579 | 0.445 | 0.401 | 0.887 | 0.851 | 0.499 |
| NAMRRYIEEFQ [MNS1_Y244] | 0.734 | 0.352 | 0.459 | 0.458 | 0.501 | 0.417 | 0.819 | 0.371 | 0.413 | 0.516 | 0.346 | 0.541 | 0.347 | 0.847 | 0.585 | 0.452 |
| LNPFIYSLRNC [OR1A2_Y288_W293C] | 1.45 | 0.826 | 1.24 | 0.902 | 1.2 | 1 | 2.72 | 4.37 | 5.22 | 1.11 | 1.04 | 0.792 | 6.28 | 0.69 | 0.734 | 0.624 |
